In publication PMC6033355, “A bi-specific inhibitor targeting IL-17A and MMP-9 reduces invasion and motility in MDA-MB-231 cells” (Oncotarget, 2018):

Target: T1, HD_(N-TIMP2,V3) bi-specific heterodimer (N-TIMP2 fused by a linker to V3, the engineered soluble …)
T1 construct: flexible linker; Order on the chain: N-TIMP2, linker, V3, human IgG1 Fc, 6xHis; Vector pFUSE-hIgG1e3-Fc1; Glycosylated; also called bi-specific fusion protein; source: HEK293F, transiently transfected, secreted, purified (Ni-NTA, gel filtration); not shown: Fc (human IgG1), C-terminal, kept
Assay: BLI; Octet Red; HD_(N-TIMP2,V3) or V3 loaded on Protein A sensors (10 ug/ml, 300 s); IL-17A or MMP-9CAT in solution at 50, 100, 200 nM; 300 s association, 1800-2500 s dissociation; 30 C; PBS, 1% BSA, 0.05% Tween; 1:1 binding model
Details: both partners purified

Kd: 1.65 ± 0.02 nM
B1: MMP-9CAT (soluble MMP-9 catalytic domain) (enzyme)
chain: FQTFEGDLKWHHHNITYWIQNYSEDLPRAVIDDAFARAFALWSAVTPLTFTRVYSRDADIVIQFGVAEHGDGYPFDGKDGLLAHAFPPGPGIQGDAHFDDDELWSLGKGQGYSLFLVAAHEFGHALGLDHSSVPEALMYPMYRFTEGPPLHKDDVNGIRHLY
modifications: Active enzyme, catalytic and structural Zn2+ and Ca2+ (assay buffer has 5 mM CaCl2). Limits are not printed in the text given. Taken by convention from the MMP-9 catalytic domain lacking the …
